Assay results from paper PMC4398645.

Molecular target: T1, His6-Arc (Activity-regulated cytoskeleton-associated protein, full length) (mouse), Q9WV31
T1 chain: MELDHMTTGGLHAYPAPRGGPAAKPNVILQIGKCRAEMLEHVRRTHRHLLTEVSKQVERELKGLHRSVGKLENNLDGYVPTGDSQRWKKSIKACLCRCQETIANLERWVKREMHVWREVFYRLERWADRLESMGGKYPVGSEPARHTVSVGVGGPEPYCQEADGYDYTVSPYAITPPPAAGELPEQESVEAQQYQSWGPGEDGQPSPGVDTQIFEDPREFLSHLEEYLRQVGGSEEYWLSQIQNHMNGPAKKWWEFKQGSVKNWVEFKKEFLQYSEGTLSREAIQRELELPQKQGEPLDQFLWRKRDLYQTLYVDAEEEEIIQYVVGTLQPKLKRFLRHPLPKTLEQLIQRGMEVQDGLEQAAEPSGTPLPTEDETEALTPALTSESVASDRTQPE
Experiment: SEC + other: sucrose density gradient centrifugation
Settings: remark: other sources report otherwise

stoichiometry N: 2
B1: His6-Arc (Activity-regulated cytoskeleton-associated protein, full length), Q9WV31 1-396 (natural protein)
chain: T1 chain
